Measured values taken from patent US20240384250A1, “FIBROBLAST GROWTH FACTOR 23 MODULATING COMPOUNDS” (THE UAB RESEARCH FOUNDATION, priority 2021, published 2024).
Entries after “also recorded” stand apart in the source; their conditions may differ.

T1: FGFR1c (Homo sapiens, UniProt P11362)
T1 construct: Fc-coupled FGFR ectodomains were immobilized on protein A/G beads; purchased R&D Systems 658FR050
T1 sequence (P11362 22-376 limits assumed): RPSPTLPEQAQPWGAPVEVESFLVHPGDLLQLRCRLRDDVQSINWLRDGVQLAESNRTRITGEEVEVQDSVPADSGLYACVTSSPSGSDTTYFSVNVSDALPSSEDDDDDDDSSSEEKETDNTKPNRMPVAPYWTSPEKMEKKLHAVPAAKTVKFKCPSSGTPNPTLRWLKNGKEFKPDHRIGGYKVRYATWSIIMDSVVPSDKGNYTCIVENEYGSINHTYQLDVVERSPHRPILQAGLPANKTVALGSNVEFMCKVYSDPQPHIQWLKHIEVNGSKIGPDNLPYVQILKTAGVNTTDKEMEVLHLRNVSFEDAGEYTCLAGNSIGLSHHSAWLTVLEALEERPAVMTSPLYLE

T2: FGF8b binding to FGFR1c (Homo sapiens, UniProt P11362)
T2 construct: a chimeric protein consisting of the FGFR1 ectodomain and the Fc region of a human IgG; purchased R&D Systems 423-F8/CF; 658FR050
T2 sequence (P11362 22-376 limits assumed): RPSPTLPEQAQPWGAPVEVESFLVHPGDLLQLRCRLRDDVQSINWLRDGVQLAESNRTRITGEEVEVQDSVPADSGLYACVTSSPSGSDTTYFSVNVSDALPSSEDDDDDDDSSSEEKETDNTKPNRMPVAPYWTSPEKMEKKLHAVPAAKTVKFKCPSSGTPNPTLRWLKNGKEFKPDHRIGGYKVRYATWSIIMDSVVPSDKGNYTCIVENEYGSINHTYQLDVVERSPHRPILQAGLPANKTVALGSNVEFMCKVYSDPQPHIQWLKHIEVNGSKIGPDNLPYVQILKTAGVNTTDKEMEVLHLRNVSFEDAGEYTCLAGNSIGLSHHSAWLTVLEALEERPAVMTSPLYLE

T3: FGF2 binding to FGFR1c (Homo sapiens, UniProt P11362)
T3 construct: a chimeric protein consisting of the FGFR1 ectodomain and the Fc region of a human IgG; purchased R&D Systems 233-FB/CF; 658FR050
T3 sequence (P11362 22-376 limits assumed): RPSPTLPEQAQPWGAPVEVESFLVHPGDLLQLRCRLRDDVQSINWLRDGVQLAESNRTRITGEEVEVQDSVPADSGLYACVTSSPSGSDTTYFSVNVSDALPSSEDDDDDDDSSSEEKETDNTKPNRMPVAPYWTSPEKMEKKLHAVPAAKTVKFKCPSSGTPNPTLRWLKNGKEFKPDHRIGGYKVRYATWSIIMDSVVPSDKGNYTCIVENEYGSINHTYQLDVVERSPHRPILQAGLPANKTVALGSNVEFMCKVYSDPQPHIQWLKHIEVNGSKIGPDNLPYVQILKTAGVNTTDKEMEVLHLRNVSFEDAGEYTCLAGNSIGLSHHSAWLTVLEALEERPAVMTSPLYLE


What was measured:
[1] = tested on: adult rat ventricular myocytes (ARVMs); test: Calcium transients and cell shortening in adult rat ventricular myocytes; type: cell-based
Protocol: As done before,^69 adult male Wistar rats (150-200 g) were killed and hearts were quickly removed and cannulated via the ascending aorta on a Langendorff system where they were retrograde perfused and digested by type II collagenase. Hearts were perfused with calcium-free Tyrode's solution supplemented with 0.2 mmol/L of ethyleneglycol-bis-((3-aminoethylether)-N,N, N′,N′-tetraacetic acid for 3 minutes. For the digestion, hearts were perfused with Tyrode's solution containing 0.1 mmol/L of CaCl2), 1 mg/ml of type II collagenase (Worthington), and 1 mg/ml of BSA for 3 to 4 minutes at room temperature. Cells were resuspended in Tyrode's solution containing 1 mmol/L of CaCl2). Tyrode's solution contains 130 mM NaCl, 5.4 mM KCl, 0.4 mM NaH2PO4, 0.5 mM MgCl2, 25 mM N-2-hydroxyethylpiperazine-N-2-ethanesulfonic acid, and 22 mM glucose. Adult rat ventricular myocytes (ARVMs) were loaded with the fluorescent Ca^2+ dye Fluo-3 AM (Thermo Fisher Scientific) for cytosolic Ca^2+ measurements. […] Cytosolic Ca^2+ transients were recorded under 1 Hz of field stimulation using 2 parallel platinum electrodes. […] Cell contraction was stimulated as the difference in cell length between rest and contraction (during electrical stimulation), expressed as a percentage of shortening of the cell length. […]

FGFR1c = target: T1, FGFR1c; test: Plate-based binding assay, FGFR1c coated, FLAG-sKL detected with anti-FLAG HRP; conditions: for binding of FLAG-sKL to coated FGFR1c: 40 ng FGFR1c coated, 80 ng FLAG-sKL, compared with FGFR4 and FGF23
Protocol: (§1) Proteins were coated on 96-well plates (MaxiSorp; 439454, Thermo Fisher Scientific), and proteins were added to wells in 100 μl of enzyme-linked immunosorbent assay (ELISA) coating buffer (E107, Bethyl Laboratories) with a lid placed overtop and incubated at 4° C. overnight. Plates were washed 5× with 350 μl of assay buffer (50 mM Tris [pH 7.4], 200 mM NaCl, 0.01% Tween 20) on a 50 TS microplate washer (BioTek). Plates were blocked for 1 hour in 200 μl of assay buffer with 0.5% BSA. Plates were washed as before, and proteins were incubated on plates in 100 μl of assay buffer with 0.5% BSA. Proteins or heparin was incubated in orders described in the respective figure legends. Assays using FLAG-tag-based detection were incubated with anti-FLAG coupled to HRP at 1:20,000, and assays using Fc detection were incubated with anti-human Fc coupled to HRP at 1:10,000. Plates were washed as above, and 100 μl of 3,3′,5,5′-tetramethylbenzidine (TMB) substrate (E102, Bethyl Laboratories) was added for 15 to 20 minutes until positive wells developed a dark blue color. Reactions were stopped with ELISA stop solution (E115, Bethyl Laboratories) and analyzed using the Synergy HI plate reader (BioTek) at 450 nm wavelength. […] As a control to remove background absorbance values, wells were coated with an equal amount of BSA to match the amount of protein coated in experimental wells and treated the same as experimental wells. To study the effects of sKL on the binding between paracrine FGFs and FGFRs, plates were run as above except coated with paracrine FGFs. Fc-FGFR1 was preincubated with sKL or vehicle for 60 minutes, and then the combination was added to wells and the assay was run as before.

[2] = tested on: FGF21 binding to FGFR isoforms 1c, 2c, 3c, 4; test: Pull-down and plate binding of FGF21 to FGFR isoforms with sKL or heparin; set-up: species or system human
Protocol: To study the interaction between Fc-tagged FGFR isoforms (Fc-FGFR), FGF isoforms, and sKL, immunoprecipitation studies were conducted. Protein A beads (6501, BioVision) and protein G beads (6511, BioVision) were used at 25 μl of a 50% stock slurry per sample in a total bead volume of 50 μl. Beads were washed 5× in activity buffer (50 mM Tris [pH 7.4], 200 mM NaCl, 0.01% Tween 20). Bead spin-down assays were all performed for 2 minutes at 5000 g. Beads were resuspended in 1 ml of activity buffer in a 1.5-ml snap cap tube. One microgram of Fc-FGFR1 to 4 was incubated with the beads for 1 hour on a bead rotator. Control samples were incubated with 2 μg of anti-FGF antibody instead of Fc-FGFR. […] Samples were analyzed using SDS-PAGE and Western blotting.
Proteins were coated on 96-well plates (MaxiSorp; 439454, Thermo Fisher Scientific), and proteins were added to wells in 100 μl of enzyme-linked immunosorbent assay (ELISA) coating buffer (E107, Bethyl Laboratories) with a lid placed overtop and incubated at 4° C. overnight. […] Reactions were stopped with ELISA stop solution (E115, Bethyl Laboratories) and analyzed using the Synergy HI plate reader (BioTek) at 450 nm wavelength. […] As a control to remove background absorbance values, wells were coated with an equal amount of BSA to match the amount of protein coated in experimental wells and treated the same as experimental wells. […]

FGF8b binding to FGFR1c = target: T2, FGF8b binding to FGFR1c; test: Plate-based binding of paracrine FGF to Fc-FGFR1c with heparin and/or sKL; conditions: Fc-FGFR1c preincubated with 400 ng FLAG-sKL
Protocol: as §1

FGF2 binding to FGFR1c = target: T3, FGF2 binding to FGFR1c; test: as above; conditions: Fc-FGFR1c preincubated with FLAG-sKL, absence and presence of heparin
Protocol: as §1

binding of FLAG-sKL to coated FGFR1c (FGFR1c)	FGFR1c binding, protein from HEK293 lysates instead of supernatants (FGFR1c; 200 ng FGFR1c coated)	binding of FGFR1c to FGF8b in the presence of sKL (FGF8b binding to FGFR1c)	binding of FGFR1c to FGF2 in the presence of sKL (FGF2 binding to FGFR1c; listed as FLAG-sKL)	Molecule	peak fluorescence [Ca2+]i transients (F/F0) ([1]; FGF23 10 ng/ml, 2 minutes perfusion)	cell contraction (cell shortening) ([1]; FGF23 alone)	binding of FLAG-sKL to coated FGFR1c (FGFR1c; listed as FLAG-sKL)	binding of FGF21 to any of the FGFR isoforms [2]	binding of FGFR1c to FGF2 in the presence of sKL (FGF2 binding to FGFR1c)
				FGF23: recombinant fibroblast growth factor 23 protein from R&D Systems (protein) YPDTSPLLGSNWGSLTHLYTATARTSYHLQIHRDGHVDGTPHQTIYSALMITSEDAGSVVITGAMTRRFLCMDLHGNIFGSLHFSPENCKFRQWTLENGYDVYLSQKHHYLVSLGRAKRIFQPGTNPPPFSQFLARRNEVPLLHFYTVRPRRHTRSAEDPPERDPLNVLKPRPRATPVPVSCSRELPSAEEGGPAASDPLGVLRRGRGDARGGAGGADRCRPFPRFV	increased systolic	increased cell contraction			
highest affinity	smaller increase	reduced the binding	significantly reduced	sKL: recombinant soluble α-klotho ectodomain, mouse aa 35-982 and human aa 34-981, FLAG- or Strep/His-tagged, purified from HEK293 cells (protein, left off: small tags and cut ends, recombinant soluble α-klotho ectodomain, mouse aa 35-982 and human aa 34-981, FLAG- or Strep/His-tagged, purified from HEK293 cells) EPGDGAQTWARFSRPPAPEAAGLFQGTFPDGFLWAVGSAAYQTEGGWQQHGKGASIWDTFTHHPLAPPGDSRNASLPLGAPSPLQPATGDVASDSYNNVFRDTEALRELGVTHYRFSISWARVLPNGSAGVPNREGLRYYRRLLERLRELGVQPVVTLYHWDLPQRLQDAYGGWANRALADHFRDYAELCFRHFGGQVKYWITIDNPYVVAWHGYATGRLAPGIRGSPRLGYLVAHNLLLAHAKVWHLYNTSFRPTQGGQVSIALSSHWINPRRMTDHSIKECQKSLDFVLGWFAKPVFIDGDYPESMKNNLSSILPDFTESEKKFIKGTADFFALCFGPTLSFQLLDPHMKFRQLESPNLRQLLSWIDLEFNHPQIFIVENGWFVSGTTKRDDAKYMYYLKKFIMETLKAIKLDGVDVIGYTAWSLMDGFEWHRGYSIRRGLFYVDFLSQDKMLLPKSSALFYQKLIEKNGFPPLPENQPLEGTFPCDFAWGVVDNYIQVDTTLSQFTDLNVYLWDVHHSKRLIKVDGVVTKKRKSYCVDFAAIQPQIALLQEMHVTHFRFSLDWALILPLGNQSQVNHTILQYYRCMASELVRVNITPVVALWQPMAPNQGLPRLLARQGAWENPYTALAFAEYARLCFQELGHHVKLWITMNEPYTRNMTYSAGHNLLKAHALAWHVYNEKFRHAQNGKISIALQADWIEPACPFSQKDKEVAERVLEFDIGWLAEPIFGSGDYPWVMRDWLNQRNNFLLPYFTEDEKKLIQGTFDFLALSHYTTILVDSEKEDPIKYNDYLEVQEMTDITWLNSPSQVAVVPWGLRKVLNWLKFKYGDLPMYIISNGIDDGLHAEDDQLRVYYMQNYINEALKAHILDGINLCGYFAYSFNDRTAPRFGLYRYAADQFEPKASMKHYRKIIDSNGFPGPETLERFCPEEFTVCTECSFFHTRKS			highest affinity; also recorded: bound FGFR1c	did not mediate binding; also recorded: did not lead to complex formation; also recorded: did not bind any of the FGFR isoforms	reduced; also recorded: this effect did not occur in the presence of sKL
